What was measured:
[1] = test system: T1, Src-1 optical probe (GEEEIYGEIEK, SEQ. ID. NO: 3)
T1 sequence: GEEEIYGEIEK

[2] = test system: T2, Src-2 optical probe (GEEEIYGVIEK, SEQ. ID. NO: 29), non-phosphorylated
T2 sequence: GEEEIYGVIEK

protein kinase A = test: cell-based or functional assay
[3] = test system: T3, phosphorylated Src-2-specific substrate optical probe (SEQ. ID. NO: 29)
T3 sequence: RRFHSRRRR

[4] = test system: T4, phosphorylated abl-specific substrate optical probe (SEQ. I.D. No. 4)
T4 sequence: AEAIYAAPLK

[5] = biological target: T5, abl-specific substrate optical probe (AEAIYAAPL, SEQ. ID. NO: 4), non-phosphorylated
T5 chain: AEAIYAAPLK

Molecule: Src kinase (Upstate Biotechnology)
- apparent Km (fluorescence measurements after protease incubation) [1]: 11 µM and 19 µM respectively
- apparent Km (fluorescence measurements after protease incubation) [2]: 11 µM and 19 µM respectively

Molecule: PKI (substrate competitive inhibitor of protein kinase A) (peptide)
- 460/530 Emission Ratio, Kinase + the inhibitor PKI (2.8 µM) (negative control 11.67, positive control 2.11) (460/530 emission ratio) (protein kinase A): 11.7

Molecule: protein tyrosine phosphatase-B (PTP-B) agarose (Upstate Biotechnology)
- Kcat/Km (dephosphorylation) [3]: nearly 10^8 M^-1sec^-1
- apparent Km (Michaelis-Menten plot, dephosphorylation) [3]: the apparent Km for the Src-2optical probe is 1.3 µM
- kcat (dephosphorylation) [3]: the kcat is 79 sec^-1
- relative rate of dephosphorylation [3]: the Src-2 substrate is more readily de-phosphorylated than the abl substrate
- relative rate of dephosphorylation [4]: the Src-2 substrate is more readily de-phosphorylated than the abl substrate

B1: Recombinant v-Abl kinase (protein)
chain: YITPVNSLEKHSWYHGPVSRNAAEYLLSSGINGSFLVRESESSPGQRSISLRYEGRVYHYRINTASDGKLYVSSESRFNTLAELVHHHSTVADGLITTLHYPAPKRNKPTIYGVSPNYDKWEMERTDITMKHKLGGGQYGEVYEGVWKKYSLTVAVKTLKEDTMEVEEFLKEAAVMKEIKHPNLVQLLGVCTREPPFYIITEFMTYGNLLDYLRECNRQEVSAVVLLYMATQISSAMEYLEKKNFIHRDLAARNCLVGENHLVKVADFGLSRLMTGDTYTAHAGAKFPIKWTAPESLAYNKFSIKSDVWAFGVLLWEIATYGMSPYPGIDLSQVYELLEKDYRMERPEGCPEKVYELMRACWQWNPSDRPSFAEIHQAFETMFQESSISDEVEKELGKRGTRG
- apparent Km for the substrate (kinetics of phosphorylation, FRET/chymotrypsin read-out) [5]: apparent Km for the substrate of 40 µM
- turnover (kcat) of the optical probe [5]: The turnover of the optical probe by v-Abl was 9.5 sec^-1

— patent publication US20030087328A1
